Reference: patent publication US20200283528A1 (NUMAB THERAPEUTICS, published 2020)
Positions count from the first letter of the chain named.

B1: PRO1057 (38_02_A04 sc01 scDb-i/33-03-G02 sc01 scDb-o/mxr HSA (23-13-A01-sc03, sk17sh4)) (other)
chain: DIQMTQSPSSLSASVGDRVTITCQASQSINDYLAWYQQKPGKAPKLLIYKASTLASGVPSRFSGSGSGTDFTLTISSLQPEDFATYYCQQGYIITDIDNVFGTGTKVTVLGGGGGSQVQLQESGPGLVKPSETLSLTCKVSGFSFSNSYWICWIRQPPGKGLEWIGCTFVGSSDSTYYANWAKGRVTISVDSSKNQFSLKLSSVTAADTAVYYCARHPSDAVYGYANNLWGQGTLVTVSSGGGGSGGGGSGGGGSGGGGSIQMTQSPSSLSASVGDRVTITCQASQSINNVLAWYQQKPGKAPKLLIYRASTLASGVPSRFSGSGSGTDFTLTISSLQPEDFATYYCQSSYGNYGDFGTGTKVTVLGGGGGSQVQLQESGPGLVKPSETLSLTCKVSGFSFSSGYDMCWIRQPPGKGLEWIGCVVAGSVDITYYASWAKGRVTISVDSSKNQFSLKLSSVTAADTAVYYCARKDAYSDAFNLWGQGTLVTVSSGGGGSGGGGSVVMTQSPSSLSASVGDRVTITCQASQIISSRSAWYQQKPGQPPKLLIYQASKLASGVPSRFSGSGSGTDFTLTISSLQPEDFATYYCQCTYIDSNFGAFGGGTKLTVLGGGGGSGGGGSGGGGSGGGGSEVQLVESGGGLVQPGGSLRLSCAASGFSFSSSYWICWVRQAPGKGLEWVGCVFTGDGTTYYASWAKGRFTISRDNSKNTVYLQMNSLRAEDTATYFCARPVSVYYYGMDLWGQGTLVTVSS
B2: PRO1392 (33-03-G02-sc18 scFv) (scFv)
scFv: DIQMTQSPSSLSASVGDRVTITCQASQSINDYLAWYQQKPGKAPKLLIYKASTLASGVPSRFSGSGSGTDFTLTISSLQPEDFATYYCQQGYIITDIDNVFGTGTKVTVLGGGGGSGGGGSGGGGSGGGGSQVQLQESGPGLVKPSETLSLTCKASGFSFSSGYDMCWVRQPPGKGLEWIACVVAGSVDITYYASWAKGRVTISKDSSKNQVSLKLSSVTAADTAVYYCARKDAYSDAFNLWGQGTLVTVSS
B3: PRO1183 (33-03-G02-sc03 scFv) (scFv)
scFv: B2 scFv with I2F, M4L, A43S, V133S, Y228F
notes: also called 33_03_G02 sc03 Full
B4: PRO830 (33-03-G02-sc01 scFv) (scFv)
scFv: B2 scFv with A155V, V169I, A181G, K205V, V212F
notes: also called 33-03-G02 CDR

Legend:
[1] = target: T1, human PDL1 (recombinant, soluble) (human, UniProt Q9NZQ7 19-238); test: PDL1/B7-1 competition ELISA; B7-1 coated, biotinylated PDL1 40 ng/ml
T1 construct: also called hPDL1; hPD-L1
Experimental: (§1) ELISA microplates coated overnight at 4° C. with 4 μg/ml human B7-1 were washed three times with 450 μl wash buffer per well. Plates were blocked for 1 hour at room temperature by adding 300 μl of PBS with 1% BSA and 0.2% tween (dilution buffer) to each well. […] The mixtures were pre-incubated for 1 hour at room temperature under gentle agitation on a rotating mixer (21 rpm) and added to the microplates after 3 wash cycles with 450 μl wash buffer per well. Plates were incubated for 1.5 hours at room temperature under gentle agitation, then 10 ng/ml streptavidin-polyHRP40 was added to each microplate well after three washes with 450 μl of wash buffer per well. After 1 h incubation at RT, plates were washed three times with 450 μl wash buffer and TMB substrate solution was added. The enzymatic reaction was stopped after 6 minutes by addition of 1 M HCl and absorbance was measured at 450 nm using 690 nm as a reference wavelength. For calculation of IC₅₀ values, a four-parameter logistic (4PL) curve fit was performed in Graph Pad Prism using reference subtracted values.

[2] = target: T1, human PDL1 (recombinant, soluble); test: PDL1/PD-1 competition ELISA with human serum albumin
Experimental: as §1, with “PD-1” for “B7-1”

[3] = target: T1, human PDL1 (recombinant, soluble); test: PD-1/PDL1 competition ELISA in the presence of 1 mg/ml human serum albumin: biotinylated human PDL1 pre-incubated with the inhibitor, then binding to plate-coated human PD-1; blocked ligand PD-1
Experimental: as §1, with “PD-1” for “B7-1”

[4] = target: T1, human PDL1 (recombinant, soluble); test: PDL1/PD-1 competition ELISA; PD-1 coated, biotinylated PDL1 1 ng/ml
Experimental: as §1, with “PD-1” for “B7-1”

[5] = target: T2, human PDL1 expressed on cells (human, UniProt Q9NZQ7 19-290); test: cell-based or functional assay
[6] = target: T2, human PDL1 expressed on cells; test: cell-based or functional assay; remark: listed apart in the source
[7] = target: T1, human PDL1 (recombinant, soluble); test: PDL1/PD-1 competition ELISA; PD-1 coated; scFv
Experimental: (§2) ELISA plates were coated by adding 50 μl of PBS containing 4 μg/ml PD-1 overnight at 4° C. Next day, plates were washed three times in overflow mode with 450 μl wash buffer (PBS, 0.005% Tween 20) per wells and 300 μl of blocking buffer (PBS, 1% BSA, 0.2% Tween 20) were added to each well for 1 h at RT on a nutating mixer. […] ELISA pates were washed 3 times in overflow mode with 450 μl wash buffer and two times 50 μl of each dilution was added in adjacent wells of the ELISA plates in order to generate duplicates. Plates were incubated 90 minutes at RT under gentle agitation. After three washes with 450 μl of washing buffer, 50 μl of 10 ng/ml streptavidin-polyHRP40 were added to each wells of the ELISA plates. After 1 h incubation at RT, plates were washed three times with 450 μl wash buffer and developed for 5 to 10 minutes after addition of 50 μl TMB. Finally, the enzymatic reaction was stopped by addition of 50 μl of 1 M HCl and plate was read at 450 nm using 690 nm as a reference wavelength.

[8] = target: cynomolgus PDL1, recombinant (Sino Biological) / PDL1-Fc chimeric protein (cynomolgus (Macaca fascicularis), UniProt G7PSE7 19-238); test: SPR Biacore T200; cynomolgus PDL1 (Sino Biological) captured; scFv as analyte
Experimental: (§3) After each analyte injection cycle, the CM5 sensor chip was regenerated and new antigen was captured. The scFvs were injected as analyte using a dose response multicycle kinetic assay with concentrations of the analyte ranging from 0.12 to 30 nM diluted in running buffer for 5 min and dissociation of the protein was allowed to proceed for 12 min. Obtained sensorgrams were fitted using the 1:1 binding model.

[9] = target: T1, human PDL1 (recombinant, soluble); test: PDL1/B7-1 competition ELISA; B7-1 coated; scFv
Experimental: as §2, with “μg/ml B7-1” for “μg/ml PD-1”, “of” for “of 10 ng/ml”, “streptavidin-polyHRP40 was” for “streptavidin-polyHRP40 were”, “ELISA plate.” for “ELISA plates.”

Fc tagged human PDL1 = target: T3, Fc tagged human PDL1 (human, UniProt Q9NZQ7 19-238); test: SPR Biacore T200; Fc tagged PDL1 captured; scFv 0.12-30 nM
T3 construct: also called PDL1-Fc chimeric protein (human); not shown: Fc tag
Experimental: as §3

Fc tagged human PDL2 = target: T4, Fc tagged human PDL2 (human, UniProt Q9BQ51 20-219); test: SPR Biacore T200; Fc tagged human PDL2 captured; scFv as analyte
T4 construct: not shown: Fc tag
T4 sequence (looked up): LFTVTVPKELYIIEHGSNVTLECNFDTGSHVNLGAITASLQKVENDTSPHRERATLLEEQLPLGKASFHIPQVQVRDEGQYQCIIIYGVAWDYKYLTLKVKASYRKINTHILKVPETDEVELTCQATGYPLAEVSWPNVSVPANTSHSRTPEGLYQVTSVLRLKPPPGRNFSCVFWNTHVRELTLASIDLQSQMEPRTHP
Experimental: Humanized scFvs were tested for binding to PDL2 by SPR analysis on a T200 device (Biacore, GE Healthcare). In this experiment, Fc tagged human PDL2 was captured using the Human Antibody Capture kit from GE healthcare. After each analyte injection cycle the CM5 sensor chip was regenerated and new antigen was captured. The scFvs were injected as analyte at a concentration of 180 nM diluted in running buffer for 5 min and dissociation of the protein was allowed to proceed for 12 min.

[10] = target: T2, human PDL1 expressed on cells; test: flow cytometry on CHO-PDL1 cells; scFv detected by APC labelled protein-L

Sequence of cynomolgus PDL1, recombinant (Sino Biological) / PDL1-Fc chimeric protein (G7PSE7 entry or part of it mutant limits assumed): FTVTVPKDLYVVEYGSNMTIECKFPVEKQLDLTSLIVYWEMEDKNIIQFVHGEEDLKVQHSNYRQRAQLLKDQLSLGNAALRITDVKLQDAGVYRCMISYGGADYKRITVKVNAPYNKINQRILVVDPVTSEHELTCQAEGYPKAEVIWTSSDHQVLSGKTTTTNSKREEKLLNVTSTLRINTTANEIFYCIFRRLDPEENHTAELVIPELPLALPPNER

Row | Binder | IC50 [1] | IC50 [4] | reporter gene assay IC50 [6] | reporter gene assay Maximum Inhibition (%) [6] | IC50 [7] | Maximum Inhibition (%) [7] | KD, cyno/KD, human [8] | Kd [8] | koff [8] | kon [8] | IC50 [9] | Maximum Inhibition (%) [9] | Kd (Fc tagged human PDL1) | koff (Fc tagged human PDL1) | kon (Fc tagged human PDL1) | binding result (Fc tagged human PDL2) | other results
1 | B1 | 0.0163 µg/mL | 8.61 ng/mL |  |  |  |  |  |  |  |  |  |  |  |  |  |  | fold higher IC50 in presence of human serum albumin [2]: ~2 fold; IC50 (read off the curve) [3]: ~20 ng/mL; NF-AT potency assay IC50 (with HSA) [5]: 665 ng/mL
2 | B2 |  |  | 12 ng/mL | 96.7% | 0.47 ng/mL | 99.9% | 2 | 0.0199 nM | 8.87e-05 s⁻¹ | 4.45e+06 M⁻¹ s⁻¹ | 1.19 ng/mL | 93.2% | 9.94 pM | 6.16e-05 s⁻¹ | 6.19e+06 M⁻¹ s⁻¹ | no binding (tested: 180 nM) | 
3 | B3 |  |  | 9.98 ng/mL | 102% | 0.36 ng/mL | 99.8% | < 5.58 | 0.0117 nM | 1.82e-05 s⁻¹ | 1.55e+06 M⁻¹ s⁻¹ | 0.977 ng/mL | 95.4% | < 2.1 pM | < 1e-05 s⁻¹ | 4.77e+06 M⁻¹ s⁻¹ | no binding (tested: 180 nM) | 
4 | B4 | 0.0129 µg/mL | 3.4 ng/mL | 37.5 ng/mL | 105% | 3.45 ng/mL | 99.8% | 0.97 | 0.074 nM | 0.000182 s⁻¹ | 2.46e+06 M⁻¹ s⁻¹ | 6.11 ng/mL | 94.5% |  | 0.000159 s⁻¹ |  |  | EC50 [10]: 0.0202 µg/mL; NF-AT potency assay IC50 [5]: 42.9 ng/mL
